Results published in patent US20060057146A1.

Columns and labels:
[1] = molecular target: recombinant ED-B domain of fibronectin (UniProt P02751); test: 125I-labelled antibody on ED-B Sepharose column, bound against unbound radioactivity, before injection
[2] = molecular target: recombinant ED-B domain of fibronectin (UniProt P02751); test: 125I-labelled antibody in mouse plasma 3 h after i.v. injection, ED-B Sepharose column
[3] = molecular target: recombinant ED-B domain of fibronectin (UniProt P02751); test: 125I-labelled antibody in mouse plasma 6 h after i.v. injection, ED-B Sepharose column
[4] = molecular target: recombinant ED-B domain of fibronectin (UniProt P02751); test: 125I-labelled antibody in mouse plasma 24 h after i.v. injection, ED-B Sepharose column
[5] = molecular target: recombinant ED-B domain of fibronectin (UniProt P02751); test: 125I-labelled antibody in mouse plasma 48 h after i.v. injection, ED-B Sepharose column
[6] = molecular target: recombinant ED-B domain of fibronectin (UniProt P02751); test: 125I-labelled antibody in mouse plasma 72 h after i.v. injection, ED-B Sepharose column
[7] = molecular target: recombinant ED-B domain of fibronectin (UniProt P02751); test: 125I-labelled antibody in mouse plasma 144 h after i.v. injection, ED-B Sepharose column

Chain of scFv(L19) (VH): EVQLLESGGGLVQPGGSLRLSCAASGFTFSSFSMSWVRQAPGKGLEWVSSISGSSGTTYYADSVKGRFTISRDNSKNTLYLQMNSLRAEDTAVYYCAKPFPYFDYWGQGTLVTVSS
Chain of scFv(L19) (VL): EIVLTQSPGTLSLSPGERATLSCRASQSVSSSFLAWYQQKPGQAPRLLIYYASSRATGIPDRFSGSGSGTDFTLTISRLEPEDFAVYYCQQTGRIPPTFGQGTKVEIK
Chain of UniProt P02751 (P02751 1266-1356 limits assumed): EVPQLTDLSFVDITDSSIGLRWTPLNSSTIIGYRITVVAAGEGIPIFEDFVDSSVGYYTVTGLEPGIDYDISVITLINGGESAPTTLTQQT

L19 small immunoprotein (L19-SIP) (from UniProt P01854 319-426)
immunoreactivity (percentage bound to ED-B Sepharose) [1]: > 90%

scFv(L19)
Immunoreactivity (I), % of the value before i.v. injection [2]: 36% | Immunoreactivity (I), % of the value before i.v. injection [3]: 32% | Immunoreactivity (I), % of the value before i.v. injection [4]: 27% | Immunoreactivity (I), % of the value before i.v. injection [5]: 14% | Immunoreactivity (I), % of the value before i.v. injection [6]: 9% | Immunoreactivity (I), % of the value before i.v. injection [7]: 4% | immunoreactivity (percentage bound to ED-B Sepharose) [1]: > 90%
